Results published in article PMC2001758.

Target: high affinity saturable binding sites for LDL on the human non-small cell lung tumour line L-DAN (LDL-receptors) (human (endogenous in L-DAN)) (UniProt P01130)
Assay: radioligand binding; 125I-labelled LDL on cells of the human non-small cell lung tumour line L-DAN; saturable binding

high affinity saturable binding sites for LDL on the human non-small cell lung tumour line L-DAN (LDL-receptors) (human (endogenous in L-DAN)), sequence (P01130 22-860): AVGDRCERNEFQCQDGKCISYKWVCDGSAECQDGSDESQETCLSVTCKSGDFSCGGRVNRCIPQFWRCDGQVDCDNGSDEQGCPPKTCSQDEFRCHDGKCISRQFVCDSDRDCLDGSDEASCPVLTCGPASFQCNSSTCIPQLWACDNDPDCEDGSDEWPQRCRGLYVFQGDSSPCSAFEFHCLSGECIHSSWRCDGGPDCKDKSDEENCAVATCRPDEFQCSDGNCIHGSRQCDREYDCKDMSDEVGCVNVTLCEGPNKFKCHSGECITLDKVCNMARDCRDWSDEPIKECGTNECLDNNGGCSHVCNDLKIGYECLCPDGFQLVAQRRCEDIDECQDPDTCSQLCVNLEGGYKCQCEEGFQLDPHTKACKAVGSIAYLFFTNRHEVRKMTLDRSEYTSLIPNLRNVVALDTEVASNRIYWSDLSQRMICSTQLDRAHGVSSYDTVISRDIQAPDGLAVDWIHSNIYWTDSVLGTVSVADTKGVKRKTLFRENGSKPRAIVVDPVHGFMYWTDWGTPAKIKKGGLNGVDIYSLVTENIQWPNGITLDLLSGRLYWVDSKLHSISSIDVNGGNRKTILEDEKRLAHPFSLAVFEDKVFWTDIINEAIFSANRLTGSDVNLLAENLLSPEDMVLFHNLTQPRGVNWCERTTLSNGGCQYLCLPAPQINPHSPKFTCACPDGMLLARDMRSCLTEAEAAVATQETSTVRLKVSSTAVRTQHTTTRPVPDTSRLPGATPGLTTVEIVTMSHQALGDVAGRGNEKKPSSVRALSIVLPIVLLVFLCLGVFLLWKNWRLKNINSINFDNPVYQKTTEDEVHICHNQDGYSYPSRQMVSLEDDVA

Km (p ml ' (as printed, garbled)): 40
Substance: low density lipoprotein (LDL) (from UniProt P04114 28-4563)
